The text below walks through data of paper doi:10.1101/2021.01.07.425795 (bioRxiv, 2021).

By stoichiometry N is commonly meant a count of units in the complex or per binding partner.

First the molecules themselves.
B1: His6-C-ECSIT (domain or fragment, human, UniProt Q9BQ95 249-431, looked up)
chain: LPKDSTGAADPPQPHIVGIQSPDQQAALARHNPARPVFVEGPFSLWLRNKCVYYHILRADLLPPEEREVEETPEEWNLYYPMQLDLEYVRSGWDNYEFDINEVEEGPVFAMCMAGAHDQATMAKWIQGLQETNPTLAQIPVVFRLAGSTRELQTSSAGLEEPPLPEDHQEEDDNLQRQQQGQS
B2: ECSIT (tag-free) (natural protein, human, UniProt Q9BQ95 49-431, looked up)
chain: SSEQSLVPSPPEPRQRPTKALVPFEDLFGQAPGGERDKASFLQTVQKFAEHSVRKRGHIDFIYLALRKMREYGVERDLAVYNQLLNIFPKEVFRPRNIIQRIFVHYPRQQECGIAVLEQMENHGVMPNKETEFLLIQIFGRKSYPMLKLVRLKLWFPRFMNVNPFPVPRDLPQDPVELAMFGLRHMEPDLSARVTIYQVPLPKDSTGAADPPQPHIVGIQSPDQQAALARHNPARPVFVEGPFSLWLRNKCVYYHILRADLLPPEEREVEETPEEWNLYYPMQLDLEYVRSGWDNYEFDINEVEEGPVFAMCMAGAHDQATMAKWIQGLQETNPTLAQIPVVFRLAGSTRELQTSSAGLEEPPLPEDHQEEDDNLQRQQQGQS
B3: Loop12-ACAD9 (enzyme, human)
chain: AFAKELFLGKIKKKEVFPFPEVSQDELNEINQFLGPVEKFFTEEVDSRKIDQEGKIPDETLEKLKSLGLFGLQVPEEYGGLGFSNTMYSRLGEIISMDGSITVTLAAHQAIGLKGIILAGTEEQKAKYLPKLASGEHIAAFCLTEPASGSDAASIRSRATLSEDKKHYILNGSKVWITNGGLANIFTVFAKTEVVDSDGSVKDKITAFIVERDFGGVTNGKPEDKLGIRGSNTCEVHFENTKIPVENILGEVGDGFKVAMNILNSGRFSMGSVVAGLLKRLIEMTAEYACTRKQFNKRLSEFGLIQEKFALMAQKAYVMESMTYLTAGMLDQPGFPDCSIEAAMVKVFSSEAAWQCVSEALQILGGLGYTRDYPYERILRDTRILLIFEGTNEILRMYIALTGLQHAGRILTTGGSGGSGGSGGSDLGLTGNHGVVHPSLADSANKFEENTYCFGRTVETLLLRFGKTIMEEQLVLKRVANILINLYGMTAVLSRASRSIRIGLRNHDHEVLLANTFCVEAYLQNLFSLSQLDKYAPENLDEQIKKVSQQILEKRAYICAHPLDRTC
B4: His6-SMT3-NDUFAF1 (natural protein, human, UniProt Q9Y375 25-327, looked up)
chain: YPFLGIRFAEYSSSLQKPVASPGKASSQRKTEGDLQGDHQKEVALDITSSEEKPDVSFDKAIRDEAIYHFRLLKDEIVDHWRGPEGHPLHEVLLEQAKVVWQFRGKEDLDKWTVTSDKTIGGRSEVFLKMGKNNQSALLYGTLSSEAPQDGESTRSGYCAMISRIPRGAFERKMSYDWSQFNTLYLRVRGDGRPWMVNIKEDTDFFQRTNQMYSYFMFTRGGPYWQEVKIPFSKFFFSNRGRIRDVQHELPLDKISSIGFTLADKVDGPFFLEIDFIGVFTDPAHTEEFAYENSPELNPRLFK
B5: ACAD9 (wild type, without a tag) (enzyme, human, UniProt Q9H845 38-621, looked up)
chain: AFAKELFLGKIKKKEVFPFPEVSQDELNEINQFLGPVEKFFTEEVDSRKIDQEGKIPDETLEKLKSLGLFGLQVPEEYGGLGFSNTMYSRLGEIISMDGSITVTLAAHQAIGLKGIILAGTEEQKAKYLPKLASGEHIAAFCLTEPASGSDAASIRSRATLSEDKKHYILNGSKVWITNGGLANIFTVFAKTEVVDSDGSVKDKITAFIVERDFGGVTNGKPEDKLGIRGSNTCEVHFENTKIPVENILGEVGDGFKVAMNILNSGRFSMGSVVAGLLKRLIEMTAEYACTRKQFNKRLSEFGLIQEKFALMAQKAYVMESMTYLTAGMLDQPGFPDCSIEAAMVKVFSSEAAWQCVSEALQILGGLGYTRDYPYERILRDTRILLIFEGTNEILRMYIALTGLQHAGRILTTRIHELKQAKVSTVMDTVGRRLRDSLGRTVDLGLTGNHGVVHPSLADSANKFEENTYCFGRTVETLLLRFGKTIMEEQLVLKRVANILINLYGMTAVLSRASRSIRIGLRNHDHEVLLANTFCVEAYLQNLFSLSQLDKYAPENLDEQIKKVSQQILEKRAYICAHPLDRTC
B6: ACAD9-His6 (enzyme, human, UniProt Q9H845 38-621, looked up)
chain: B5 chain
B7: ACAD9 Arg469Trp (enzyme, human, UniProt Q9H845 38-621, looked up)
chain: B5 chain with R432W
B8: ACAD9 Glu426Gln (enzyme, human, UniProt Q9H845 38-621, looked up)
chain: B5 chain with E389Q
B9: ACAD9 Arg532Trp (enzyme, human, UniProt Q9H845 38-621, looked up)
chain: B5 chain with R495W
B10: ACAD9 Arg518His (enzyme, human, UniProt Q9H845 38-621, looked up)
chain: B5 chain with R481H
B11: very long chain acyl-CoA dehydrogenase (VLCAD) (enzyme, human, UniProt P49748 41-655, looked up)
chain: AGGAAQLALDKSDSHPSDALTRKKPAKAESKSFAVGMFKGQLTTDQVFPYPSVLNEEQTQFLKELVEPVSRFFEEVNDPAKNDALEMVEETTWQGLKELGAFGLQVPSELGGVGLCNTQYARLVEIVGMHDLGVGITLGAHQSIGFKGILLFGTKAQKEKYLPKLASGETVAAFCLTEPSSGSDAASIRTSAVPSPCGKYYTLNGSKLWISNGGLADIFTVFAKTPVTDPATGAVKEKITAFVVERGFGGITHGPPEKKMGIKASNTAEVFFDGVRVPSENVLGEVGSGFKVAMHILNNGRFGMAAALAGTMRGIIAKAVDHATNRTQFGEKIHNFGLIQEKLARMVMLQYVTESMAYMVSANMDQGATDFQIEAAISKIFGSEAAWKVTDECIQIMGGMGFMKEPGVERVLRDLRIFRIFEGTNDILRLFVALQGCMDKGKELSGLGSALKNPFGNAGLLLGEAGKQLRRRAGLGSGLSLSGLVHPELSRSGELAVRALEQFATVVEAKLIKHKKGIVNEQFLLQRLADGAIDLYAMVVVLSRASRSLSEGHPTAQHEKMLCDTWCIEAAARIREGMAALQSDPWQQELYRNFKSISKALVERGGVVTSNPLGF

Changes are numbered by the printed parent chain. Where two headings read alike, the source gives them in different places.

Series [1] concerns the molecule itself. Kind of series: SEC. For orientation: SEC sorts molecules by how far they enter the pores of the column.
Series [2] addresses B5. Description: SEC.
Series [3] deals with B6. Kind of series: pull-down.
Series [4] has as its target T1, His6-ECSIT (human, UniProt Q9BQ95 49-431).
T1 sequence (looked up): B2 chain
Kind of series: SEC.

For series [5], the target named is T1, His6-ECSIT. Description: SEC. The source holds these as a separate data set.

For B1, the “stoichiometry N” value was 4 in series [1] and 1 C-ECSIT chains per ACAD9 chain (one tetramer with two dimers) in series [2]. B2: the “stoichiometry N” value in series [3] was ~1 mol/mol. Regarding B3, the “stoichiometry N” value in series [1] came to 2.

In the case of B4, the “stoichiometry N” value is 1 NDUFAF1 chains per ECSIT chain (two monomers with one dimer) in series [4] and 1 mol/mol in series [5].

In the case of B5, the “stoichiometry N” value in series [1] worked out at 2. On the same count and under the same terms, to B6 belongs 2. Take B7: the “stoichiometry N” value in series [1] stood at 2. Same read-out and setting: to B8 belongs 2.

Regarding B9, the “stoichiometry N” value in series [1] was determined as 2. Still for that read-out and setting: to B10 belongs 2. For the molecule B11, the “stoichiometry N” value in series [1] turned out to be 2.
